Paper PMC7948479, “Allostery in the nitric oxide dioxygenase mechanism of flavohemoglobin” (The Journal of Biological Chemistry, 2020)
Like-named read-outs stand apart in the source and are kept apart here.

Columns and labels:
[1] = parameters: method as in PMID 7821669; conditions: cited from earlier work
[2] = target: E. coli flavoHb-NOD (Escherichia coli, UniProt P24232); format: biochemical; parameters: made in house; host or cells: E. coli hmp deletion strain AG103 carrying pUC19hmp
From the text: (§1) We have formulated a steady-state velocity equation for the catalytic cycle with the activating trigger step (KT) (Equation 1).(1) v= Vmax(a) where a=([NO]^2[O2]^2/K1K2K3KTK4)/(1+([O2]/K1)+([O2]^2/K1K2)+(([O2]^2[NO])/K1K2K3)+(([O2]^2[NO])/K1K2K3KT)+(([O2]^2[NO]^2)/K1K2K3KTK4))
(§2) (2) v= Vmax(a)(b) where b=[NO]/(K3+([NO](1+((K2/[O2])(1+([NO]/Ki(NO)))))))
(§3) In addition, we have introduced a factor and equilibrium constant Ka(O2) for rare situations in which O2 causes an additional NO-independent activation of catalysis possibly by occupying unique binding sites or cavities (Equation 5).
(§4) NOD activity was measured amperometrically in 100 mM phosphate buffer, pH 7.0, containing 0.3 mM EDTA, 100 μg/ml bovine serum albumin (BSA) (Fraction V), 100 μM NADH, 0.1 μM FAD with NO, O2, and N2 mixtures added as described ([4], [72]). NADH oxidase activity was followed spectrophotometrically at 340 nm in a 1.0-ml cuvette containing 90 mM Tris chloride buffer, pH 8.2, 100 μM NADH, 200 μM O2, 0.1 μM FAD, 100 μg/ml BSA, and 0.3 mM EDTA and incubated at 37 °C. Cytochrome b5 reductase activity was assayed at 37 °C by following the rate of absorbance increase at 555 nm in a 1.0-ml reaction buffered with 90 mM Tris chloride, pH 8.2, and containing 10 μM ferric cytochrome b5, 200 μM O2, 20 μM NADH, 0.1 μM FAD, 100 μg/ml BSA, and 0.3 mM EDTA. TMAO reductase activity was assayed by following the absorbance decrease at 340 nm in a 1.0-ml anaerobic reaction containing 12 U Aspergillus niger glucose oxidase, 5 mM glucose, 260 U catalase, 400 mM TMAO, 100 μM NADH, 0.1 μM FAD, 100 μg/ml BSA, and 0.3 mM EDTA in 90 mM Tris chloride pH 8.2 and incubated at 37 °C. Ngb reductase activity was assayed by following the absorbance increase at 424 nm in a 1.0-ml anaerobic reaction containing 12 U glucose oxidase, 5 mM glucose, 260 U catalase, 5 μM Ngb, 50 μM NADH, 0.1 μM FAD, 100 μg/ml BSA, and 0.3 mM EDTA in 90 mM Tris chloride buffer, pH 8.2, and incubated at 37 °C. Methyl viologen reductase activity was assayed by following the formation of the blue cation radical at 603 nm and by applying an extinction coefficient of 13,300 M^−1 cm^−1 in a 1.0-ml anaerobic reaction buffered with 10 mM potassium phosphate, pH 7.0, and containing 12 U glucose oxidase, 5 mM glucose, 260 U catalase, 100 μM NADH, 0.1 μM FAD, 100 μg/ml BSA, 0.3 mM EDTA, and 200 mM sodium chloride and incubated at 37 °C. NO reductase activity was assayed amperometrically at 37 °C in a 1.0-ml anaerobic reaction containing 2 μM NO, 100 μM NADH, 0.1 μM FAD, 12 U glucose oxidase, 5 mM glucose, 260 U catalase, 100 μg/ml BSA, and 0.3 mM EDTA buffered with 10 mM potassium phosphate pH 7.0. CO effects were tested at a final concentration of 50 μM as diluted from a 1 mM stock in water. All activities are reported relative to the heme content of flavoHb.
(§5) Rate constants were estimated from the model kinetic equation using Python programming with successive approximations to optimize fits with varying NO and O2 concentrations. Vmax, K1, K2, KT, and Kii(NO) values were treated as independent variables for a given flavoHb while allowing K3, K4, and Ki(NO) to vary over limited ranges with varying O2 concentration. Kii(NO) was estimated from NO inhibition at saturating O2 concentrations.

[3] = parameters: method as in PMID 10777548, PMID 10922365; conditions: cited from earlier work
[4] = test system: ferric cytochrome b5; test: Cytochrome b5 reductase activity; format: biochemical, rat; conditions: 37 °C; 10 μM ferric cytochrome b5
From the text: (§6) Reagents were purchased from Sigma-Aldrich Chemical Co (St Louis, MO, USA) unless otherwise stated. DNA primers were synthesized at the University of Cincinnati Medical Center DNA facility. Praxair (Bethlehem, PA, USA) was the supplier of 99.993% O2, 99.999% CO, and 99.98% N2. Bovine liver catalase (260,000 U/ml) was obtained from Roche Applied Science. Recombinant rat cytochrome b5 (soluble form) and murine Ngb were expressed in E. coli and purified essentially as described ([10], [70]). NADH purity (≥95%) was assessed by the ratio of the 340 to 260 nm absorbance with a value of 0.437 equal to 100% reduced.

[5] = test system: anaerobic E. coli; parameters: method as in PMID 11751864; conditions: cited from earlier work
[6] = test system: Ngb; test: Ngb reductase activity; format: biochemical, murine; conditions: 37 °C; 5 μM Ngb; anaerobic
From the text: as §6

[7] = TMAO reductase activity; format: biochemical; conditions: 37 °C; 400 mM TMAO; anaerobic
Procedure: (§7) NADH oxidase activity was followed spectrophotometrically at 340 nm in a 1.0-ml cuvette containing 90 mM Tris chloride buffer, pH 8.2, 100 μM NADH, 200 μM O2, 0.1 μM FAD, 100 μg/ml BSA, and 0.3 mM EDTA and incubated at 37 °C. […] TMAO reductase activity was assayed by following the absorbance decrease at 340 nm in a 1.0-ml anaerobic reaction containing 12 U Aspergillus niger glucose oxidase, 5 mM glucose, 260 U catalase, 400 mM TMAO, 100 μM NADH, 0.1 μM FAD, 100 μg/ml BSA, and 0.3 mM EDTA in 90 mM Tris chloride pH 8.2 and incubated at 37 °C. […] Methyl viologen reductase activity was assayed by following the formation of the blue cation radical at 603 nm and by applying an extinction coefficient of 13,300 M^−1 cm^−1 in a 1.0-ml anaerobic reaction buffered with 10 mM potassium phosphate, pH 7.0, and containing 12 U glucose oxidase, 5 mM glucose, 260 U catalase, 100 μM NADH, 0.1 μM FAD, 100 μg/ml BSA, 0.3 mM EDTA, and 200 mM sodium chloride and incubated at 37 °C. NO reductase activity was assayed amperometrically at 37 °C in a 1.0-ml anaerobic reaction containing 2 μM NO, 100 μM NADH, 0.1 μM FAD, 12 U glucose oxidase, 5 mM glucose, 260 U catalase, 100 μg/ml BSA, and 0.3 mM EDTA buffered with 10 mM potassium phosphate pH 7.0. CO effects were tested at a final concentration of 50 μM as diluted from a 1 mM stock in water. […]

[8] = test system: E. coli flavoHb-NOD; format: biochemical, Escherichia coli; conditions: for Ki: NO competitive with O2; for K3: NO passage through gate, apparent Km(NO); for Kii(NO): NO uncompetitive inhibition; for K2: O2 displacement of LeuE11; for k'NOD app: calculated from Vmax/K3; for k'NOD: calculated from Vmax/K4; for K4: reaction of NO with Fe^3+O2^−; for KT: trigger step equilibrium constant
From the text: as §1, §2, §3, §4, §5

[9] = test system: flavoHb heme (Fe^2+ / Fe^3+); conditions: cited from earlier work
[10] = NADH oxidase activity; format: biochemical; conditions: 37 °C; relative to heme content
Procedure: as §7

B1: WT: wild-type E. coli flavohemoglobin (flavoHb), an NO dioxygenase (NOD) (protein, UniProt P24232 1-396, looked up)
Flavohemoprotein: MLDAQTIATVKATIPLLVETGPKLTAHFYDRMFTHNPELKEIFNMSNQRNGDQREALFNAIAAYASNIENLPALLPAVEKIAQKHTSFQIKPEQYNIVGEHLLATLDEMFSPGQEVLDAWGKAYGVLANVFINREAEIYNENASKAGGWEGTRDFRIVAKTPRSALITSFELEPVDGGAVAEYRPGQYLGVWLKPEGFPHQEIRQYSLTRKPDGKGYRIAVKREEGGQVSNWLHNHANVGDVVKLVAPAGDFFMAVADDTPVTLISAGVGQTPMLAMLDTLAKAGHTAQVNWFHAAENGDVHAFADEVKELGQSLPRFTAHTWYRQPSEADRAKGQFDSEGLMDLSKLEGAFSDPTMQFYLCGPVGFMQFTAKQLVDLGVKQENIHYECFGPHKVL
[1]
  FAD/FADH2 potential (E^0): < −0.15 V
  nominal heme mid-point potential: −0.125 V
[2]
  Vmax/K3: 2.3e+09 M⁻¹ s⁻¹
  bimolecular rate constant of ferric–superoxide complex with internalized NO: 10^10 M^−1 s^−1
  k'NOD estimated from the Vmax/K4 ratio: 1 to 2 × 10^10 M^−1 s^−1
  velocity of NOD activity: 8 s⁻¹
[2]; read-out: Ki(NO) for NO competition with O2 for LT entry
  Ki: 300 to 1200 nM
[3]
  NO elimination via reduction: ≤ 0.1 s⁻¹
  Vmax for Fe^2+NO reduction: 0.1 s⁻¹
[4]
  cytochrome b5 reductase activity: 0.14 s⁻¹
[5]
  NO metabolic activity: insignificant NO metabolic activity
[6]
  Ngb reductase activity: 0.20 s⁻¹
[7]
  TMAO reductase activity: 0.21 s⁻¹
[8]; 20 °C
  Vmax: 160 NO heme^−1 s^−1
  Ki: 300 to 1000 nM
  K3: 0.1–0.4 Micromolar
  Kii(NO): 10 (10) Micromolar
  K2: 20 Micromolar
  k'NOD app: 0.4–1.6 10^9 M^−1 s^−1
  k'NOD: 0.5–2.7 10^9 M^−1 s^−1
  K4: 0.06–0.3 Micromolar
  KT: 0.1 (0.1)
[8]; 37 °C
  Vmax: 580 NO heme^−1 s^−1
  Ki: 700 to 1200 nM
  K3: 0.25 Micromolar
  Kii(NO): 10 (10) Micromolar
  K2: 120 Micromolar
  k'NOD app: 2.3 10^9 M^−1 s^−1
  k'NOD: 9.7–19 10^9 M^−1 s^−1
  K4: 0.03–0.06 Micromolar
  KT: 0.1 (0.1)
[8]; Arrhenius equation for Vmax at 37 and 20 °C
  overall activation energy (Ea): ~13.7 kcal/mol
[9]; Fe^2+ NO dissociation
  k: 0.0002 (4) s^−1
[9]; Fe^3+ NO dissociation
  k: ∼4000 (4) s^−1
[10]
  NADH oxidase activity: 0.27 s⁻¹
